Experimental findings from patent publication US20170015742A1 (published 2017) are described below.

Bounds are passed on as bounds.

Sequences and labels used below:
B1: hBDI-5H1.2 (antibody, V domains shown)
VH: EVTLRESGPALVKPTQTLTLTCTFSGFSLSTFGMGVGWIRQPPGKALEWLANIWWDDDKYYNPSLKNRLTISKDTSKNQVVLTMTNMDPVDTATYYCARISTGISSYYVMDAWGQGTTVTVSS
VL: NFMLTQPHSVSESPGKTVTISCERSSGDIGDTYVSWYQQRPGSPPTNVIYGNDQRPSGVPDRFSGSIDSSSNSASLTISGLKTEDEADYFCQSYDSDIDIVFGGGTKLTVL
B2: hBDI-5H1.7 (antibody, V domains shown)
VH: EVTLKESGPALVKPTQTLTLTCTFSGFSLSTFGMGVGWIRQPPGKALEWLANIWWDDDKYYNPSLKNRLTISKDTSKNQAVLTITNMDPVDTATYYCARISTGISSYYVMDAWGQGTTVTVSS
VL: EIVLTQSPGTLSLSPGERATLSCERSSGDIGDTYVSWYQQKPGQAPRLLIYGNDQRPSGIPDRFSGSGSGTDFTLTISRLEPEDFAVYYCQSYDSDIDIVFGGGTKVEIK
B3: hBDI-5H1.4 (antibody, V domains shown)
VH: EVTLRESGPALVKPTQTLTLTCTFSGFSLSTFGMGVGWIRQPPGKALEWLANIWWDDDKYYNPSLKNRLTISKDTSKNQVVLTMTNMDPVDTATYYCARISTGISSYYVMDAWGQGTTVTVSS
VL: EFVLTQSPGTLSLSPGERATLSCERSSGDIGDTYVSWYQQKPGQAPRLVIYGNDQRPSGIPDRFSGSGSGTDFTLTISRLEPEDFAVYYCQSYDSDIDIVFGGGTKVEIK
B4: hBDI-5H1.13 (antibody, V domains shown)
VH: EVTLKESGPALVKPTQTLTLTCTFSGFSLSTFGMGVGWIRQPPGKALEWLANIWWDDDKYYNPSLKNRLTISKDTSKNQAVLTITNMDPVDTATYYCARISTGISSYYVMDAWGQGTTVTVSS
VL: DFQLTQSPSSLSASVGDRVTITCERSSGDIGDTYVSWYQQKPGKAPKNVIYGNDQRPSGVPSRFSGSGSGNSATLTISSLQPEDFATYFCQSYDSDIDIVFGQGTKVEIK
B5: hBDI-5H1.8 (antibody, V domains shown)
VH: EVTLKESGPALVKPTQTLTLTCTFSGFSLSTFGMGVGWIRQPPGKALEWLANIWWDDDKYYNPSLKNRLTISKDTSKNQAVLTITNMDPVDTATYYCARISTGISSYYVMDAWGQGTTVTVSS
VL: EFVLTQSPGTLSLSPGERATLSCERSSGDIGDTYVSWYQQKPGQAPRLVIYGNDQRPSGIPDRFSGSGSGTDFTLTISRLEPEDFAVYYCQSYDSDIDIVFGGGTKVEIK
B6: hBDI-5H1.10 (antibody, V domains shown)
VH: EVTLRESGPALVKPTQTLTLTCTFSGFSLSTFGMGVGWIRQPPGKALEWLANIWWDDDKYYNPSLKNRLTISKDTSKNQAVLTITNMDPVDTATYYCARISTGISSYYVMDAWGQGTTVTVSS
VL: DFQLTQSPSSLSASVGDRVTITCERSSGDIGDTYVSWYQQKPGKAPKNVIYGNDQRPSGVPSRFSGSGSGNSATLTISSLQPEDFATYFCQSYDSDIDIVFGQGTKVEIK
B7: hBDI-5H1.17 (antibody, V domains shown)
VH: EVTLKESGPALVKPTQTLTLTCTFSGFSLSTFGMGVGWIRQPPGKGLEWLANIWWDDDKYYNPSLKNRLTISKDTSNSQAVLTITNMDPVDTATYYCARISTGISSYYVMDAWGQGTTVTVSS
VL: EFVLTQSPGTLSLSPGERATLSCERSSGDIGDSYVSWYQQKPGQAPRLVIYADDQRPSGIPDRFSGSGSGTDFTLTISRLEPEDFAVYYCQSYDINIDIVFGGGTKVEIK
B8: hBDI-5H1.3 (antibody, V domains shown)
VH: EVTLRESGPALVKPTQTLTLTCTFSGFSLSTFGMGVGWIRQPPGKALEWLANIWWDDDKYYNPSLKNRLTISKDTSKNQVVLTMTNMDPVDTATYYCARISTGISSYYVMDAWGQGTTVTVSS
VL: EIVLTQSPGTLSLSPGERATLSCERSSGDIGDTYVSWYQQKPGQAPRLLIYGNDQRPSGIPDRFSGSGSGTDFTLTISRLEPEDFAVYYCQSYDSDIDIVFGGGTKVEIK
B9: hBDI-5H1.16 (antibody, V domains shown)
VH: EVTLKESGPALVKPTQTLTLTCTFSGFSLSTFGMGVGWIRQPPGKGLEWLANIWWDDDKYYNPSLKNRLTISKDTSNSQAVLTITNMDPVDTATYYCARISTGISSYYVMDAWGQGTTVTVSS
VL: EFVLTQSPGTLSLSPGERATLSCERSSGDIGDTYVSWYQQKPGQPPRNVIYGNDQRPSGVPDRFSGSGSGTDFTLTISRLEPEDFAVYFCQSYDSDIDIVFGGGTKVEIK
B10: hBDI-5H1.9 (antibody, V domains shown)
VH: EVTLRESGPALVKPTQTLTLTCTFSGFSLSTFGMGVGWIRQPPGKALEWLANIWWDDDKYYNPSLKNRLTISKDTSKNQAVLTITNMDPVDTATYYCARISTGISSYYVMDAWGQGTTVTVSS
VL: DFVLTQSPDSLAVSLGERATINCERSSGDIGDTYVSWYQQKPGQPPKNVIYGNDQRPSGVPDRFSGSGSGNSATLTISSLQAEDVAVYFCQSYDSDIDIVFGGGTKVEIK
B11: hBDI-5H1.5 (antibody, V domains shown)
VH: EVTLKESGPALVKPTQTLTLTCTFSGFSLSTFGMGVGWIRQPPGKALEWLANIWWDDDKYYNPSLKNRLTISKDTSKNQAVLTITNMDPVDTATYYCARISTGISSYYVMDAWGQGTTVTVSS
VL: NFMLTQPHSVSESPGKTVTISCERSSGDIGDTYVSWYQQRPGSSPTTVIYGNDQRPSGVPDRFSGSIDSSSNSASLTISGLKTEDEADYYCQSYDSDIDIVFGGGTKLTVL
B12: hBDI-5H1.6 (antibody, V domains shown)
VH: EVTLKESGPALVKPTQTLTLTCTFSGFSLSTFGMGVGWIRQPPGKALEWLANIWWDDDKYYNPSLKNRLTISKDTSKNQAVLTITNMDPVDTATYYCARISTGISSYYVMDAWGQGTTVTVSS
VL: NFMLTQPHSVSESPGKTVTISCERSSGDIGDTYVSWYQQRPGSPPTNVIYGNDQRPSGVPDRFSGSIDSSSNSASLTISGLKTEDEADYFCQSYDSDIDIVFGGGTKLTVL
B13: hBDI-5H1.11 (antibody, V domains shown)
VH: EVQLVESGGGLVQPGGSLRLSCAFSGFSLSTFGMGVGWIRQAPGKGLEWLANIWWDDDKYYNPSLKNRLTISKDTSKNQAYLQINSLRAEDTAVYYCARISTGISSYYVMDAWGQGTLVTVSS
VL: DFVLTQSPDSLAVSLGERATINCERSSGDIGDTYVSWYQQKPGQPPKNVIYGNDQRPSGVPDRFSGSGSGNSATLTISSLQAEDVAVYFCQSYDSDIDIVFGGGTKVEIK
B14: hBDI-5H1.12 (antibody, V domains shown)
VH: EVQLVESGGGLVQPGGSLRLSCAFSGFSLSTFGMGVGWIRQAPGKGLEWLANIWWDDDKYYNPSLKNRLTISKDTSKNQAYLQINSLRAEDTAVYYCARISTGISSYYVMDAWGQGTLVTVSS
VL: DFQLTQSPSSLSASVGDRVTITCERSSGDIGDTYVSWYQQKPGKAPKNVIYGNDQRPSGVPSRFSGSGSGNSATLTISSLQPEDFATYFCQSYDSDIDIVFGQGTKVEIK
B15: hBFU-3E2.1 (antibody, V domains shown)
VH: EVQLVQSGAEVKKPGSSVKVSCKASGYTFTESYMYWVKQAPGQGLELIGRIDPEDGSTDYVEKFKNKATLTADKSTSTAYMELSSLRSEDTAVYFCARFGARSYFYPMDAWGQGTTVTVSS
VL: ETVLTQSPATLSLSPGERATLSCRASESVSTLMHWYQQKPGQQPRLLIYGASNLESGVPARFSGSGSGTDFTLTISSLEPEDFAVYFCQQSWNDPWTFGGGTKVEIK
B16: hBFU-3E2.4 (antibody, V domains shown)
VH: EVQLVQSGAEVKKPGSSVKVSCKASGYTFTESYMYWVRQAPGQGLELIGRIDPEDGSTDYVEKFKNRVTLTADKSTSTAYMELSSLRSEDTAVYYCARFGARSYFYPMDAWGQGTTVTVSS
VL: ATQLTQSPSSLSASVGDRVTISCRASESVSTLMHWYQQKPGKQPRLLIYGASNLESGVPSRFSGSGSGTDFTLTISSLQPEDFATYFCQQSWNDPWTFGGGTKVEIK
B17: hBFU-3E2.2 (antibody, V domains shown)
VH: EVQLVQSGAEVKKPGSSVKVSCKASGYTFTESYMYWVRQAPGQGLELIGRIDPEDGSTDYVEKFKNRVTLTADKSTSTAYMELSSLRSEDTAVYYCARFGARSYFYPMDAWGQGTTVTVSS
VL: ETVLTQSPATLSLSPGERATLSCRASESVSTLMHWYQQKPGQQPRLLIYGASNLESGVPARFSGSGSGTDFTLTISSLEPEDFAVYFCQQSWNDPWTFGGGTKVEIK
B18: hBFU-3E2.3 (antibody, V domains shown)
VH: EVQLVQSGAEVKKPGSSVKVSCKASGYTFTESYMYWVKQAPGQGLELIGRIDPEDGSTDYVEKFKNKATLTADKSTSTAYMELSSLRSEDTAVYFCARFGARSYFYPMDAWGQGTTVTVSS
VL: ATQLTQSPSSLSASVGDRVTISCRASESVSTLMHWYQQKPGKQPRLLIYGASNLESGVPSRFSGSGSGTDFTLTISSLQPEDFATYFCQQSWNDPWTFGGGTKVEIK

Chain of recombinant human PDGF-BB (P01127 82-190 limits assumed): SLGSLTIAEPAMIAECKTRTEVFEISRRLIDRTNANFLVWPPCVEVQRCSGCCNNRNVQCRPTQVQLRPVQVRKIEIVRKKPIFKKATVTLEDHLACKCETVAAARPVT

This assay concerns the target recombinant human PDGF-BB (human, UniProt P01127 82-190). Description: cell-based or functional assay.
In the case of B1, the “hPDGF-BB IC50 (nM), hPDGF-BB-induced NIH-3T3 cell proliferation” value is < 10 nM.
The figure for B2 is < 10 nM; for B3 it is < 10 nM; for B4 it is < 10 nM.
The figure for B5 is < 10 nM; for B6 it is < 10 nM; for B7 it is < 10 nM.
The figure for B8 is < 10 nM.
B9: the “hPDGF-BB IC50 (nM), hPDGF-BB-induced NIH-3T3 cell proliferation” value is < 10 nM.
As for B10, the figure is < 10 nM; as for B11, < 10 nM; as for B12, < 10 nM.
The figure for B13 is < 10 nM; for B14 it is < 10 nM; for B15 it is 0.183 nM.
The figure for B16 is 0.571 nM; for B17 it is 0.659 nM; for B18 it is 0.335 nM.
